Results on four molecules are retold here after patent US20200317768A1 (published 2020).

For orientation: Kd means the constant that tells how readily two partners part at equilibrium.

Experiment [1] concerns the target T1, cynomolgus monkey FcγRIIa3 extracellular domain, C-terminal His-tag (cynomolgus monkey).
T1 construct: also called cyno FcγRIIa3; FcgRIIa3; not shown: His-tag added to the C-terminus
T1 chain: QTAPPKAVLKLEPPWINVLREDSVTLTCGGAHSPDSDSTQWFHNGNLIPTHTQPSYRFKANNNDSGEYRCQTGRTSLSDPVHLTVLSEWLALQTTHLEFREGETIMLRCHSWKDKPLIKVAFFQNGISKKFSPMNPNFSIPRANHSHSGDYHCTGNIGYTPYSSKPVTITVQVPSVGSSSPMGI
Put plainly: SPR; KD of SG1 divided by KD of variant.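 Also: relative to parent M103205H795-SG1 carrying the SG1 human heavy chain constant region.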 How it is done: (§1) The kinetic analysis of interactions between these antibodies and FcγR was carried out using BIACORE® T200 or BIACORE® 4000 (GE Healthcare). HBS-EP+ (GE Healthcare) was used as the running buffer, and the measurement temperature was set to 25° C. A chip produced by immobilizing Protein A. Protein A/G or mouse anti-human IgG kappa light chain (BD Biosciences) onto a Series S Sensor Chip CM4 or CM5 (GE Healthcare) by the amine-coupling method was used. […] After the measurement, the antibody captured on the chip was washed off by allowing reaction with 10 mM glycine-HCl, pH1.5 and 25 mM NaOH so that the chip was regenerated and used repeatedly. The sensorgrams obtained as measurement results were analyzed by the 1:1 Langmuir binding model using the BIACORE® Evaluation Software to calculate the binding rate constant ka (L/mol/s) and dissociation rate constant kd (l/s), and the dissociation constant KD (mol/L) was calculated from these values. […] Regarding such interactions, KD values were calculated using the following 1:1 binding model described in BIACORE® T100 Software Handbook BR1006-48 Edition AE.
A general note: In SPR one partner is held on a chip, and binding of the other changes the refractive index at the surface.

Experiment [2] deals with T2, cynomolgus monkey FcγRIIa1 extracellular domain, C-terminal His-tag (cynomolgus monkey).
T2 construct: also called cyno FcγRIIa1; FcgRIIa1; not shown: His-tag added to the C-terminus
T2 chain: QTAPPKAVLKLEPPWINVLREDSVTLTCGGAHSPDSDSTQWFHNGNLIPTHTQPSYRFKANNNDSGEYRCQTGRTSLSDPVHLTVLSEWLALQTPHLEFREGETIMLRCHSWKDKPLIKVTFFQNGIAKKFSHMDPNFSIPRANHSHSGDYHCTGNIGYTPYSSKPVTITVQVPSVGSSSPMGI
Put plainly: SPR (BIACORE), antibody captured, soluble FcgR as analyte, 25C. The protocol:
as §1
(§2) The behavior of interacting molecules according to the 1:1 binding model on BIACORE® can be described by Equation 1: Req=C·R max/(KD+C)+RI, wherein, Req is a plot of steady-state binding levels to analyte concentration. C is concentration, RI is bulk refractive index contribution in the sample, and Rmax is analyte binding capacity of the surface. When this equation is rearranged, KD can be expressed as Equation 2: KD=C·Rmax/(Req−RI)−C. KD can be calculated by substituting the values of Rmax, RI, and C into Equation 1 or Equation 2. From the current measurement conditions, RI=0, C=2 μmol/L can be used.

Experiment [3] addresses T3, cynomolgus monkey FcγRIIa2 extracellular domain, C-terminal His-tag (cynomolgus monkey).
T3 construct: also called cyno FcγRIIa2; FcgRIIa2; not shown: His-tag added to the C-terminus
T3 chain: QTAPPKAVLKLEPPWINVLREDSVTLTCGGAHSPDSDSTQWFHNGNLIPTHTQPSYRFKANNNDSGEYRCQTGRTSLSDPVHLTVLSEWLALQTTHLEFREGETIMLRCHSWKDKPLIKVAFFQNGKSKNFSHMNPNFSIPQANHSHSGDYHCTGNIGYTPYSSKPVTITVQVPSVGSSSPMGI
The experiment is described as above. The protocol:
as §1, §2

For experiment [4], the target named is T4, cynomolgus monkey FcγRIIIaS extracellular domain, C-terminal His-tag (cynomolgus monkey, UniProt A3RFZ7 21-206 (rhesus entry)).
T4 construct: also called cyno FcγRIIIaS; FcgRIIIaS; not shown: His-tag added to the C-terminus
T4 sequence (A3RFZ7 21-206): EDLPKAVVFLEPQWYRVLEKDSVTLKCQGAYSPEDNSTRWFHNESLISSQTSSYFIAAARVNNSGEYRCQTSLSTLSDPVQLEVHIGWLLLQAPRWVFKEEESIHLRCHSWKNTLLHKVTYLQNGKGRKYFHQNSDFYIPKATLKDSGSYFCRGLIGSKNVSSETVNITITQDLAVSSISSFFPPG
The description is as above. How it is done:
as §1, §2

The target of experiment [5] is T5, human FcγRIIaH extracellular domain, C-terminal His-tag (human, UniProt P12318 34-217).
T5 construct: also called human FcγRIIa (type H); FcgRIIaH; not shown: His-tag added to the C-terminus
T5 sequence: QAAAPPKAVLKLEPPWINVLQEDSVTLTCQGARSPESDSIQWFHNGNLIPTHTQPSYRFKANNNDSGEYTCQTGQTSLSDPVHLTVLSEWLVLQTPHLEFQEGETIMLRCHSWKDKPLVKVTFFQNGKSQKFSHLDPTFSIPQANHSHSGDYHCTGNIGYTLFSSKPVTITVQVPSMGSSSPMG
Described as above. The protocol: as §1, §2

Experiment [6] has as its target T6, human FcγRIIaR extracellular domain, C-terminal His-tag (human, UniProt P12318 34-217).
T6 construct: also called human FcγRIIa (type R); FcgRIIaR; not shown: His-tag added to the C-terminus
T6 chain: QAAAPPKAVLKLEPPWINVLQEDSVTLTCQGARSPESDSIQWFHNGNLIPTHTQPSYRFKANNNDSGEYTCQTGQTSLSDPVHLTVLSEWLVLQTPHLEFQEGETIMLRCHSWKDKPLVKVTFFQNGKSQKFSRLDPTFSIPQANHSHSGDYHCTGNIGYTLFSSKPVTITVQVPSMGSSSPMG
The experiment is described as above. How it is done: as §1, §2

Experiment [7] deals with T7, human FcγRIIb extracellular domain, C-terminal His-tag (human, UniProt P31994 43-217).
T7 construct: also called FcgRIIb; not shown: His-tag added to the C-terminus
T7 sequence: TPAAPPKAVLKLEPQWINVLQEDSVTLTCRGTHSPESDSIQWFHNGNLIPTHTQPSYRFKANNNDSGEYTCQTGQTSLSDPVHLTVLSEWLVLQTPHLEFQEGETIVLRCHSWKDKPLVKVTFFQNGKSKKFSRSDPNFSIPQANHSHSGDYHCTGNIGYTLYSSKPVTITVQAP
The description is as above. The protocol: as §1, §2

Experiment [8] has as its target T8, human FcγRIIIaV extracellular domain, C-terminal His-tag (human, UniProt P08637 17-208).
T8 construct: also called FcgRIIIaV; not shown: His-tag added to the C-terminus
The experiment is described as above. How it is done: as §1, §2

T8 sequence (P08637 17-208 F176V): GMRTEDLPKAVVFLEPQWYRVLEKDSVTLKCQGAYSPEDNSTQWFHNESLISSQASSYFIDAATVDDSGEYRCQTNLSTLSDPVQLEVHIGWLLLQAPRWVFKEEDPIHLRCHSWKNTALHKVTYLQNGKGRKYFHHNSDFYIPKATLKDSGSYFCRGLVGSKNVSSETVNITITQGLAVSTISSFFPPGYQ

B1: MS1032LO06-SG1 (M103205H795-SG1/M103202L889-SK1) (antibody, human IgG1, kappa)
heavy: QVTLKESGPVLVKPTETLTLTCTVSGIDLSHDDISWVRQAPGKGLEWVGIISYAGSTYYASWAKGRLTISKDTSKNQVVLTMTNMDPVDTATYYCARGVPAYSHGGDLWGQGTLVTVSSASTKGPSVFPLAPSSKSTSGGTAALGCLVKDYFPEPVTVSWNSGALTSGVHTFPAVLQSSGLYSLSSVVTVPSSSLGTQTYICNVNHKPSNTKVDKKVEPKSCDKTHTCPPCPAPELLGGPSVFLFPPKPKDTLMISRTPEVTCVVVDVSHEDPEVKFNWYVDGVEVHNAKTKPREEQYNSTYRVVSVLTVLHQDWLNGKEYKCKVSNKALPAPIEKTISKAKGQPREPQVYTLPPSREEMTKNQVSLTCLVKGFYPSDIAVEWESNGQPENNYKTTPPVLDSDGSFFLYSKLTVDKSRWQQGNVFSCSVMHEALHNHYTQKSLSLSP
light: DIVMTQSPATLSLSPGERATLSCTSSQSVYHANWLSWFQQKPGQPPKLLIYWASTLAYGVPSRFSGSGSGTDFTLTISSLQPEDAATYYCAGGYGGGRYAFGQGTKVEIKRTVAAPSVFIFPPSDEQLKSGTASVVCLLNNFYPREAKVQWKVDNALQSGNSQESVTEQDSKDSTYSLSSTLTLSKADYEKHKVYACEVTHQGLSSPVTKSFNRGEC
notes: Anti-latent myostatin antibody
Take B1: in experiment [1], the “KD fold (SG1 = 1)” value was 1 fold. Also, the Kd in experiment [2] is 4.8 µM; in experiment [3] it was 4.7 µM; in experiment [4], 0.28 µM; in experiment [5], 0.89 µM; in experiment [6], 1 µM; in experiment [7], 4.7 µM. This molecule yielded a Kd in experiment [8] of 0.62 µM.

B2: MS1032LO06-MY351 (M103205H795-MY351/M103202L889-SK1) (antibody, human IgG1, kappa)
heavy: QVTLKESGPVLVKPTETLTLTCTVSGIDLSHDDISWVRQAPGKGLEWVGIISYAGSTYYASWAKGRLTISKDTSKNQVVLTMTNMDPVDTATYYCARGVPAYSHGGDLWGQGTLVTVSSASTKGPSVFPLAPSSKSTSGGTAALGCLVKDYFPEPVTVSWNSGALTSGVHTFPAVLQSSGLYSLSSVVTVPSSSLGTQTYICNVNHKPSNTKVDKKVEPKSCDKTHTCPPCPAPELLNGPSVFLFPPKPKDTLMISRTPEVTCVVVDVSDEDPEVKFNWYVDGVEVHNAKTKPREEQYNSTYRVVSVLTVLHRDWLNGKEYKCKVSNKALPKPIEKTISKAKGQPREPQVYTLPPSREEMTKNQVSLTCLVKGFYPSDIAVEWESNGQPENNYKTTPPVLDSDGSFFLYSKLTVKKSRWQQGNVFSCSVMHEALHNHYTQKSLSLSP
light: DIVMTQSPATLSLSPGERATLSCTSSQSVYHANWLSWFQQKPGQPPKLLIYWASTLAYGVPSRFSGSGSGTDFTLTISSLQPEDAATYYCAGGYGGGRYAFGQGTKVEIKRTVAAPSVFIFPPSDEQLKSGTASVVCLLNNFYPREAKVQWKVDNALQSGNSQESVTEQDSKDSTYSLSSTLTLSKADYEKHKVYACEVTHQGLSSPVTKSFNRGEC
notes: CH MY351 = SG1 with G236N/H268D/Q311R/A330K/D413K (EU numbering); also called MS103205H795-MY351
For B2, in experiment [1], the “KD fold (SG1 = 1)” value is 4 fold. Besides, the Kd was 1.6 µM in experiment [2]; 1.3 µM in experiment [3]; 4.1 µM in experiment [4]; 1.2 µM in experiment [5]; 1.6 µM in experiment [6]; 0.97 µM in experiment [7]. Moreover, the Kd in experiment [8] was determined as 7.4 µM.

B3: MS1032LO06-MY352 (M103205H795-MY352/M103202L889-SK1) (antibody, human IgG1, kappa, name in EU numbering)
heavy: QVTLKESGPVLVKPTETLTLTCTVSGIDLSHDDISWVRQAPGKGLEWVGIISYAGSTYYASWAKGRLTISKDTSKNQVVLTMTNMDPVDTATYYCARGVPAYSHGGDLWGQGTLVTVSSASTKGPSVFPLAPSSKSTSGGTAALGCLVKDYFPEPVTVSWNSGALTSGVHTFPAVLQSSGLYSLSSVVTVPSSSLGTQTYICNVNHKPSNTKVDKKVEPKSCDKTHTCPPCPAPELLNGPSVFLFPPKPKDTLMISRTPEVTCVVVDVSDEDPEVKFNWYVDGVEVHNAKTKPREEQYNSTYRVVSVLTVLHRDWLNGKEYKCKVSNKALPKPIEKTISKAKGQPREPQVYTLPPSREEMTKNQVSLTCLVKGFYPSDIAVEWESNGQPENNYKTTPPVLDSDGSFFLYSKLTVRKSRWQQGNVFSCSVMHEALHNHYTQKSLSLSP
light: DIVMTQSPATLSLSPGERATLSCTSSQSVYHANWLSWFQQKPGQPPKLLIYWASTLAYGVPSRFSGSGSGTDFTLTISSLQPEDAATYYCAGGYGGGRYAFGQGTKVEIKRTVAAPSVFIFPPSDEQLKSGTASVVCLLNNFYPREAKVQWKVDNALQSGNSQESVTEQDSKDSTYSLSSTLTLSKADYEKHKVYACEVTHQGLSSPVTKSFNRGEC
notes: Printed substitutions: G236N/H268D/Q311R/A330K/D413R (EU numbering); also called MS103205H795-MY352
Regarding B3, the “KD fold (SG1 = 1)” value in experiment [1] worked out at 3.9 fold. Moreover, the Kd in experiment [2] came to 1.7 µM; in experiment [3], 1.3 µM; in experiment [4], 4 µM; in experiment [5], 1.2 µM; in experiment [6] it was 1.6 µM; in experiment [7] it was 1 µM. In experiment [8], this molecule registered a Kd of 11 µM.

B4: MS1032LO06-MY201 (M103205H795-MY201/M103202L889-SK1) (antibody, human IgG1, kappa)
heavy: QVTLKESGPVLVKPTETLTLTCTVSGIDLSHDDISWVRQAPGKGLEWVGIISYAGSTYYASWAKGRLTISKDTSKNQVVLTMTNMDPVDTATYYCARGVPAYSHGGDLWGQGTLVTVSSASTKGPSVFPLAPSSKSTSGGTAALGCLVKDYFPEPVTVSWNSGALTSGVHTFPAVLQSSGLYSLSSVVTVPSSSLGTQTYICNVNHKPSNTKVDKKVEPKSCDKTHTCPPCPAPELLNGPSVFLFPPKPKDTLMISRTPEVTCVVVDVSDEDPEVKFNWYVDGVEVHNAKTKPREEQYNSTYRVVSVLTVLHQDWLNGKEYKCKVSNKALPKPIEKTISKAKGQPREPQVYTLPPSREEMTKNQVSLTCLVKGFYPSDIAVEWESNGQPENNYKTTPPVLDSDGSFFLYSKLTVDKSRWQQGNVFSCSVMHEALHNHYTQKSLSLSP
light: DIVMTQSPATLSLSPGERATLSCTSSQSVYHANWLSWFQQKPGQPPKLLIYWASTLAYGVPSRFSGSGSGTDFTLTISSLQPEDAATYYCAGGYGGGRYAFGQGTKVEIKRTVAAPSVFIFPPSDEQLKSGTASVVCLLNNFYPREAKVQWKVDNALQSGNSQESVTEQDSKDSTYSLSSTLTLSKADYEKHKVYACEVTHQGLSSPVTKSFNRGEC
notes: CH MY201 = SG1 with G236N/H268D/A330K (EU numbering); also called MS103205H795-MY201
Consider B4, for which, in experiment [1], the “KD fold (SG1 = 1)” value came out at 4.9 fold. For the same molecule, the Kd in experiment [2] stood at 1.5 µM; in experiment [3], 1.2 µM; in experiment [4], 3.7 µM; in experiment [5], 0.98 µM; in experiment [6], 1.2 µM; in experiment [7], 0.85 µM. Also, in experiment [8], the affinity, expressed as Kd, was 37 µM.
